# Test results published in PMC12328707, “Potassium binding by carbonyl clusters, halophilic adaptation and catalysis of Haloferax mediterranei D-2-hydroxyacid dehydrogenase” (Communications Biology, 2025).
# B1: D2HDH (Haloferax mediterranei ATCC 33500) (protein)
# chain: MHIERLAVDESVGRAMPPQRFIEALSDLGVPVEFAGEDEQFGPGDAVASFGHRDAFLDADWVHCIRAGYDEFPVGVYEEAGTYLTNSTGIHGTTVGETVAGYMLTFARRLHAYRDAQHDHAWDLPRYEEPFTLAGERVCVVGLGTLGRGVVDRAAALGMEVVGVRRSGDPVDNVSTVYTPDRLHEAIADARFVVLATPLTDETEGMVAAPEFETMREDASLVNVARGPVVVESDLVAALDSGDIAGAALDVFSEEPLPEDSPLWDFEDVLITPHVSAATSKYHEDVAALIRENIEKIATGDELTNRVV
# notes: homodimer (~66 kDa; 79 kDa by gel filtration); residues 1-308; no tag mentioned
# Tests used:
# Test in all cases: purified protein
# Type in all cases: biochemical, Haloferax mediterranei
# purified protein [1] = substrate: CCCCC(=O)C(=O)O; conditions: 0.25 mM NADPH, 4 M KCl, 50 mM HEPES pH 8.0, 22 °C
# purified protein [2] = substrate: NC(=O)C1=CN([C@@H]2O[C@H](COP(=O)(O)OP(=O)(O)OC[C@H]3O[C@@H](n4cnc5c(N)ncnc54)[C@H](O)[C@@H]3O)[C@@H](O)[C@H]2O)C=CC1; conditions: 20 mM 2-ketohexanoic acid, 4 M KCl, 50 mM HEPES pH 8.0, 22 °C, varied: cofactor
# purified protein [3] = substrate: NC(=O)C1=CN([C@@H]2O[C@H](COP(=O)(O)OP(=O)(O)OC[C@H]3O[C@@H](n4cnc5c(N)ncnc54)[C@H](OP(=O)(O)O)[C@@H]3O)[C@@H](O)[C@H]2O)C=CC1; conditions: 4 mM 2-ketohexanoic acid, 4 M KCl, 50 mM HEPES pH 8.0, 22 °C, varied: cofactor
protein,measurement,setting,value
B1,Km,purified protein [1],460 ± 30 µM
same,Vmax,purified protein [1],2.5 µmol/min/mg
same,kcat,purified protein [1],1.38 ± 0.0333 s⁻¹
same,kcat/Km,purified protein [1],3000 M⁻¹ s⁻¹
same,Km,purified protein [2],97 ± 18 µM
same,Vmax,purified protein [2],4.4 µmol/min/mg
same,kcat,purified protein [2],2.48 ± 0.167 s⁻¹
same,kcat/Km,purified protein [2],25600 M⁻¹ s⁻¹
same,Km,purified protein [3],14 ± 4 µM
same,Vmax,purified protein [3],2.5 µmol/min/mg
same,kcat,purified protein [3],1.38 ± 0.0667 s⁻¹
same,kcat/Km,purified protein [3],98800 M⁻¹ s⁻¹
